Measurements: patent US20160145654

Molecular target: IL-2-phaP fusion polypeptide on the surface of polymer particles (PHA granules), P04351
Sequence (P04351 whole entry, looked up, the tested form may be a part): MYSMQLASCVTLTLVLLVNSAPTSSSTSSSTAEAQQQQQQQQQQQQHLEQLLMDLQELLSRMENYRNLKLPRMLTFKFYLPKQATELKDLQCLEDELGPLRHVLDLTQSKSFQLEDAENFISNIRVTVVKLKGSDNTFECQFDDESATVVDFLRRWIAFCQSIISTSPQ

B1: bovine enterokinase (protein)
chain: IVGGSDSREGAWPWVVALYFDDQQVCGASLVSRDWLVSAAHCVYGRNMEPSKWKAVLGLHMASNLTSPQIETRLIDQIVINPHYNKRRKNNDIAMMHLEMKVNYTDYIQPICLPEENQVFPPGRICSIAGWGALIYQGSTADVLQEADVPLLSNEKCQQQMPEYNITENMVCAGYEAGGVDSCQGDSGGPLMCQENNRWLLAGVTSFGYQCALPNRPGVYARVPRFTEWIQSFLH
For B1, the “fluorescence of IL-2-phaP particles stained with anti-IL-2-PE after 1 hr incubation with enterokinase (FACS)” value was “a smaller shift in fluorescence intensity indicates that a proportion of IL-2 has been cleaved from the particles” and the “fluorescence of IL-2-phaP particles stained with anti-IL-2-PE after 16 hours incubation with enterokinase (FACS)” value was “no IL-2 is detectable on the surface of the polymer particles, indicating the IL-2 has been cleaved from the polymer particles”.
